Measurements taken from US20040086848A1 (University of Texas, published 2004).

T1: endogenous RANK of RAW264.7 cells (mouse, UniProt O35305 31-625)
T1 construct: whole, on cells; Immunoprecipitated from cell lysates with anti-RANK; The species follows from the mouse cell line
T1 sequence (looked up): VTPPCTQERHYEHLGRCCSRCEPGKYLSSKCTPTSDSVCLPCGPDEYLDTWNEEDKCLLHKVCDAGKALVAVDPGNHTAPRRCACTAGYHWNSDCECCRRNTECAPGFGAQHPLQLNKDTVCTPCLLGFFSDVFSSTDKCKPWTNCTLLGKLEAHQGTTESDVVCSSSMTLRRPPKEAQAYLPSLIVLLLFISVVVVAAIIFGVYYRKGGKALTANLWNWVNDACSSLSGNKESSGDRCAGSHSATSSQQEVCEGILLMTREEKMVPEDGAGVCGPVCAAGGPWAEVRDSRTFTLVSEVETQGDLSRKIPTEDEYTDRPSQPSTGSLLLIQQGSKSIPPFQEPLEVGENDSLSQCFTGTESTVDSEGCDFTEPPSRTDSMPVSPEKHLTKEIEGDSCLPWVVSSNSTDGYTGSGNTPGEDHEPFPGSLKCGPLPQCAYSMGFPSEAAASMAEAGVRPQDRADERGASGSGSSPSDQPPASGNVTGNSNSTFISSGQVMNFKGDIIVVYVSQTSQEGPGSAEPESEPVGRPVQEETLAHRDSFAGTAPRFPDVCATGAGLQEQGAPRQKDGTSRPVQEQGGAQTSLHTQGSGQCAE


Columns and labels:
[1] = target: the molecule itself; assay: gel filtration chromatography
[2] = target: T1, endogenous RANK of RAW264.7 cells; assay: interaction with endogenous RANK in RAW cells (data not shown)

binding result [2]	Binder	binding result [1]
binds	RAIN mutant K90/91A (from pCMV3×FLAG-hRAIN, stably expressed in RAW cells) (other, human, UniProt Q96GX9 1-242, looked up, range 1-242; not shown: 3×FLAG tag of pCMV3×FLAG-14 at the C-terminus) MSGCDAREGDCCSRRCGAQDKEHPRYLIPELCKQFYHLGWVTGTGGGISLKHGDEIYIAPSGVQKERIQPEDMFVCDINEKDISGPSPSAALKKSQCTPLFMNAYTMRGAGAVIHTHSKAAVMATLLFPGREFKITHQEMIKGIKKCTSGGYYRYDDMLVVPIIENTPEEKDLKDRMAHAMNEYPDSCAVLVRRHGVYVWGETWEKAKTMCECYDYLFDIAVSMKKVGLDPSQLPVGENGIV	binds
binds	RAIN mutant R194A (from pCMV3×FLAG-hRAIN, stably expressed in RAW cells) (other, human, UniProt Q96GX9 1-242, looked up, range 1-242; not shown: 3×FLAG tag of pCMV3×FLAG-14 at the C-terminus) MSGCDAREGDCCSRRCGAQDKEHPRYLIPELCKQFYHLGWVTGTGGGISLKHGDEIYIAPSGVQKERIQPEDMFVCDINEKDISGPSPSKKLKKSQCTPLFMNAYTMRGAGAVIHTHSKAAVMATLLFPGREFKITHQEMIKGIKKCTSGGYYRYDDMLVVPIIENTPEEKDLKDRMAHAMNEYPDSCAVLVRAHGVYVWGETWEKAKTMCECYDYLFDIAVSMKKVGLDPSQLPVGENGIV	binds
